B1: Z016 (MEX84_p2-55) (antibody, V domains shown)
VH: QVQLVQSGAEVKKPGASVKLSCKASGYTFTSYYVHWVRQAPGQGLEWMGIINPGNNFVSFAQNFYDRATMTRDTSTNTVYMELTNLQSEDTAVYYCARTLVAPSAQSMYYFDFWGQGTLVTVSS
VL: EIVLTQSPGTLSLSPGERGTLSCRASQYITTGHFAWYQQKPGRAPRLLIYGASVRATGVPDRFSGSGAETDFTLTISRLDPEDVGVYYCQQYGSSPVTFGPGTKVDIK
B2: Z007 (MEX105_50) (antibody, V domains shown)
VH: EVQLLESGGGLVRPGGSLRLSCTASGFTFRRYAMAWVRQAPGKGLEWVSLIYDGDDSTYYAKSVKGRFAISRDNSKNTLSLQMNSLRAEDTAVYYCVKDRDNGWSSIVDWGQGTLVTVSS
VL: DIQMTQSPSTLSASVGDRVTITCRASHSISGWLAWYQQKPGKAPKLLIYQASILESGVPSRFSGSGSGTEFTLTIGSLQPEDFATYFCQQYSTFWTFGQGTKVEIK
B3: Z009 (MEX105_64) (antibody, V domains shown)
VH: EVQLLESGGGLVRPGGSLRLSCTASGFTFRRYAMAWVRQAPGKGLEWVSLIYNGDDSTYYAESVKGRFTVSRDNSQNTLSLQMNSLRAEDTAIYYCVRDRDNGWSSIVDWGQGTLVTVSS
VL: DIQMTQSPSTLSASVGDRVTITCRASRTIGSWLAWYQQKPGKAPKLLIYQASILEGGVPSRFSGSVSGTEFTLTIRSLQPEDFATYFCQQYSTFWTFGQGTKVEIK
B4: Z008 (MEX105_60) (antibody, V domains shown)
VH: EVQLLESGGGLVRPGGSLRLSCTASGFTFRRFAMAWVRQAPGKGLEWVSLIWNGDDSTYYAESVRGRFTISRDNSHNTLSLQMRSLRAEDTAIYYCVKDRDNGWSSIVDWGQGTLVTVSS
VL: DIQMTQSPSTLSASVGDRVTITCRASQTIGNWLAWYQQKPGKAPKLLIYQASVLESGVPSRFSGSGSGTEFTLTISSLQPEDFATYFCQQYSTFWTFGQGTKVEIK
B5: Z005 (MEX18_13) (antibody, V domains shown)
VH: EVQLLESGGGLVQPGGSLRLSCAASGFTFSSYAMSWVRQAPGKGLEWVSSFSGIDDSTWYADSVKGRFTISRDNSKSTLYLQMNSLRAEDTAVYYCAKDRLVRGFAEVLDYWGRGTLVTVSS
VL: DIQMTQSPSSLSASVGDRVTITCRASQDISKYLAWYQQRPGKVPNLLIYTASTLQSGVPSRFSGSGSGTHFTLTISSLQPEDVATYYCQKYNSVPWTFGQGTKVEIK
B6: Z013 (MEX18_84) (antibody, V domains shown)
VH: EVQLLESGGGLVQPGGSLRLSCAASGFTFTSYAMNWVRQAPGKGLEWVSGIGGRGAIAGDGSIYYADSVKGRFTISRDNSKNIVYLQMNGLRVEDTAVYYCAKDRVAFDGFHVWGQGTLVTVSS
VL: DIQMTQSPPTLSASVGDRVTITCRASQSISSWLAWYQQKPGKAPKLLIYKASSLESGVPSRFSGSGSGTEFSLTISSLQPEDFATYYCQQYNSYPWTFGQGTKVEIK
B7: Z036 (BRA112_91) (antibody, V domains shown)
VH: EVQLLESGGDLVQPGGSLRLSCAASGFTFSTYGMAWVRQAPGKGLEWLSSISSVDDSKYYAASVKGRFTISRDNSRNTLYLHMNSLRVDDTAVYYCAKDRIPHGLGELYANWGQGTLVTVSS
VL: DIQMTQSPSTLSASVGDRVTITCRASQSISGWLAWYQQKPGKAPRLLMHKASNLYSGVPSRFSGSGSGTEFTLTISSLQPDDFATYYCQHYHSYPYTFGQGTKVEIK
B8: Z062 (BRA112_70) (antibody, V domains shown)
VH: EVQLVESGGGVVQPGRSLRLSCAASGFSFSSHAMYWVRQAPGKGLEWVAIVSYDGSTKNYADSVKGRFTISRDNSKNTIYLHLNSLRAEDTAVYFCAREVDGIYGYLHYWGQGTLVTVSS
VL: EIVLTQSPATLSLSPGERATLSCRARQNVRNFLAWYQQKPGQAPRLLIYDASNRATDIPARFSGSGSGTDFTLTISSLEPEDFAVYYCQQRSYSITFGQGTRLEIK
B9: Z002 (MEX18_27) (antibody, V domains shown)
VH: EVQLLESGGGLVQPGGSLRLSCATSGFTFSTYAMSWVRQAPGKGLEWVSSFSGVDDSTYYAESVKGRFTISRDNSKNTVYLQMTRLRAEDTAVYYCAKDRGPRGVGELFDSWGQGTLVTVSS
VL: DIQMTQSPSTLSASVGDRVTMTCRASQSINRWLAWYQQKPGKAPKLLIYTTSTLKSGVPSRFSGSGSGTEFTLTISSLQPDDFATYYCQHFHSVPWTFGQGTKVEIK
B10: Z011 (MEX105_15) (antibody, V domains shown)
VH: EVQLLESGGGLVQPGGSLRLSCAASGFTFRTYAMSWVRQPPGKGLEWVSSISAREDSTYFAASVRGRFTISRDNSKNTLYLQMNNLRAEDTALYYCAKDRLQLGVGELYESWGQGTLVTVSS
VL: DIQMTQSPSTLSASVGDRVTITCRASQNINSWLAWYQQKPGKAPKLLIYMASSLQSGVPSRFSGSGSGTEFTLTVSSLQPDDFATYYCQHYHSYPWTFGQGTKVEIK
B11: Z034 (BRA112_09) (antibody, V domains shown)
VH: EVQLLESGGGLAQPGGSLRLSCETSGFTFRSYGMGWVRQAPGKGLEWVSSIYISGDSTYYAASVKGRFTISRDNSKSTLYLQMDRLTAEDTAVYYCVRDRIQGGFGELYRYWGQGTLVTVSS
VL: DIQMTQSPSTLSASVGDRVTMTCRASQSVNKWLAWYQQKPGKAPKLLIYETSILESGVSSRFSGSGSGTEFTLTISSLQPDDFATYYCQHYHGYPWTFGQGTKVEIK
B12: Z003 (MEX18_58) (antibody, V domains shown)
VH: EVQLLESGGGLVQPGGSLRLSCATSGFTFTTFAMSWVRQAPGKGLEWVSSISGADDSTYYAASVKGRFTISRDNSRSTLFLQMNSLRAEDTAVYYCAKDRGPRGVGELFDSWGQGTLVTVSS
VL: DIQMTQSPSTLSASVGDRVTITCRASQSISKWLAWYQQKPGKAPRLLIYTTSTLKSGVPSRFSGSGSGTEFTLTISSLQPDDFATYYCQHFFSVPWTFGQGTKVEIK
B13: Z055 (MEX84_p4-61) (antibody, V domains shown)
VH: EVQLVQSGAEVKKPGASVKVSCKASGYTFSGYYIHWLRQAPGQGLEWMGWINSNSGGADSGPRFHGRVTMTRDTSINTAYLELTNLRSDDTAVYYCARRTYYDTRFPYWYFDLWGRGTLVTVSS
VL: AIRMTQSPSSLSASVGDRVTITCRASQDIGSYLNWYQQKPGKAPNVLISAASTLQSGVPSRISGIGSGTDFTLTISSLQPEDFATYYCQQSLSAPYTFGQGTKLEIK
B14: Z051 (BRA138_59) (antibody, V domains shown)
VH: QVQLQESGPGLVKPSQTLSLTCTVSGVSISSGGYYYSWFRQLPGKGLEWIGHIYYTGNTHYNPSLRSRLTISVDTSKNQFSLKLSSVTAADTARYYCARAWCEYAAYCWFDPWGRGTLVTVSS
VL: EIVLTQSPGTLSLSPGERATLSCRASQSVTSSYLAWYQHKPGQAPRLLIYGASSRAPGIPDRFSGSGSGTDFTLTISRLEPEDFAVYWCQQYGRSPFTFGQGTKLEIK
B15: Z050 (BRA138_28) (antibody, V domains shown)
VH: QVQLVQSGAEVKKPGSSVKVSCKAPGGTFSRYSIAWVRQAPGQGLEWMGGINPTFTTPNYAQKFQGRVTITADESTNTAYLDLSSLRSEDTAVYYCARFRYYYESGGYSDASPYYLDYWGQGTLVTVSS
VL: EIVLTQSPATLSLSPGERVTLSCRASQSVSSYLAWYQQKPGQAPRLLIYDASNRATGIPARFTGSGSGTDFTLTISSLEPEDFAVYYCQQRSNWPLTFGGGTKVEIK
B16: Z052 (BRA138_62) (antibody, V domains shown)
VH: QVQLQESGPGLVKPSQTLSLTCTVSGGSITGGVYYWNWIRHHPGKGLEWIGYMFYSGDTDYNPSLRSRVTISGDTSKNKFSLNLNSVTAADTAVYYCARAGFDYGSPVSAFDIWGQGTLVTVSS
VL: EIVLTQSPATLSLSPGERATLSCRASQSVSSTYLVWYQQKPGQAPRLLIYGASSRATGIPDRFSGSGSGTDFTLTISRLEPEDFAVYFCQQYAHSPRGYTFGQGTKLEIK
B17: Z056 (MEX84_p2-94) (antibody, V domains shown)
VH: EVQLVQSGAEVKKPGASVKVSCKASGNTFMGYYFHWVRQAPGQGLEWMGWINPNSGHANIAQTFQGRVTMTRDPSITTAYMELSRLRSDDTAVFYCARGGMLGQLWALDNWGQGTLVTVSS
VL: DIQMTQSPSTLSASVGDRVTITCRASQSISHWLAWYQQRPGEAPKLLIYQASTLESGVPSRFSGSGSGTEFTLSISSLQPDDFATYYCQQYQSSPYTFGQGTKLEIK
B18: Z057 (MEX84_p4-54) (antibody, V domains shown)
VH: EVQLVQSGAEVKRPGASVKVSCKASGYTFADYYIHWVRQAPGLGLEWMGWINPKTGFSHYEQTFQGRVTMARDTSIPAAYMELSSLKSDDTAIYYCARGGRINVAEALRYWGQGSLVTVSS
VL: DIQMTQSPSTLSTFVGDRVTITCRASQTIGDWLAWYQQKPGKAPKLLISKATRLESGVPSRFSGSGSETEFSLTINSLQPDDVAAYYCQQYMSYPWTFGQGTKLEIK
B19: Z053 (BRA138_65) (antibody, V domains shown)
VH: QLQLQESGPGLVKPSETLSLTCTVSGGSISSYNYYWGWIRQPPGKGLEFIGSIYYTGSTYYNPSLRSRVTISVDTSKNQFSLKLTSVTAADTAVYYCARHGPGMGHNWYFDLWGRGTLVTVSS
VL: EIVLTQSPATLSLSPGERATLSCRASQSISSYLAWYQQKPGQAPRLLIYDASNRAPGIPARFSGSGSGTDFTLTISSLEPEDFAVYYCQQRSTWLTFGGGTKVEIK
B20: Z061 (BRA112_36) (antibody, V domains shown)
VH: EVQLVESGGGVVQPGRSLRLSCAASGFTFSISTIHWVRQAPGKGLEYVVVISHDGNTKYYADSVKGRFIISRDNSKNTVFLQMNSLRPVDTAVYYCARGEVGYFDLWGRGTLVTVSS
VL: EIVLTQSPATLSLSPGERATLSCRASQSVSSFLAWYQQKPGQPPRLLIYDASTRATGIPARFSGSGSGTDFTLTISSLEPEDFAVYYCQQRSNWPPITFGQGTRLEIK
B21: Z017 (MEX84_p2-58) (antibody, V domains shown)
VH: QVQLVQSGAGMRKPGASVKVSCKASGYSFNDYYIHWVRQAPGQGLEWMGWINPKSGFTNYAQRFQGRVTMTGDTSNSVAYMELTRLTSDDTAVYYCARGGRINAPLGFDPWGQGTLVTVSS
VL: EIVLTQSPDTLSLSPGETATLSCRASQSIGSISLGWYQQKFGQAPRLLIYGASTRATGTPDRFSGSGSETDFTLTISRLEPEDSAVYYCQQYVSSPLRFGGGTKVEIK
B22: Z059 (MEX84_p4-34) (antibody, V domains shown)
VH: EVQLVQSGAEVKTPGSSVKVSCKTSGGTFSNFAITWVRQAPGQGLEWMGGIIPLFGITNYTQKFQGRVTITTDESKTTAYMDLSGLRSEDTAVYFCARGRDSSGRLLDHWGQGTLVTVSS
VL: EIVMTQSPATLSVSPGERATLSCRASQTVNRNLAWYQQKPGQAPRLLIYAASARATGVPARFSGSGSGTEFTLTISSLQSEDFVVYYCQQYNNWPPLTFGGGTKLEIK

What follows are binders tested against ZIKV E Domain III ([..]), polyhistidine-AviTag, produced in HEK-293-6E cells (ZIKV) (assay: ELISA on coated ZIKV EDIII). Settings: remark: other sources report otherwise.
B1 was tested, and the EC50 was 0.0724 mg/L. For B2, the EC50 was 0.0346 mg/L. B3 gave an EC50 of 0.0284 mg/L. B4 was tested, and the EC50 was 0.0326 mg/L. B5 was tested, and the EC50 was 0.216 mg/L. B6 was tested, and the EC50 was > 10 mg/L. For B7, the EC50 was 0.0172 mg/L. B8 showed an EC50 of 0.208 mg/L. B9 showed an EC50 of 0.0252 mg/L. Work on B10 yielded an EC50 of 0.038 mg/L. B11 was tested, and the EC50 was 0.0235 mg/L. With B12 the EC50 was 0.0255 mg/L. B13 showed an EC50 of 1.88 mg/L. B14 was tested, and the EC50 was 1.86 mg/L. Binder B15 has an EC50 of 0.0303 mg/L. B16 gave an EC50 of 0.0131 mg/L. For B17, the EC50 was 0.982 mg/L. Work on B18 yielded an EC50 of 0.0828 mg/L. B19 showed an EC50 of 1.68 mg/L. Work on B20 yielded an EC50 of 0.311 mg/L. With B21 the EC50 was > 10 mg/L. B22 showed an EC50 of 0.61 mg/L.

— patent US20200147199A1
